According to patent US20210340265A1 (UNM RAINFOREST INNOVATIONS, published 2021):
Ends that are not written are not given here. * marks the point of attachment. Biotin = O=C1N[C@H]2[C@H](CS[C@H]2CCCCC(=O)*)N1

Assays:
[1] = target: T1, CCK-B receptor (as coated in the indirect ELISA; form not stated); assay: ELISA
T1 chain: CETPRIRGTGTRELE

[2] = target: T2, 15-amino-acid extracellular CCK-B receptor peptide fragment CETPRIRGTGTRELE; assay: indirect ELISA on CCK-B receptor peptide
T2 construct: Custom peptide (GenScript) used for immunization and panning; also called CCK-B peptide
T2 peptide: Biotin-CETPRIRGTGTRELE

B1: CCK-BR-scFv14-3 (scFv)
chain: MAGAELVRSGASVKLSCTASGFNIKDYYIHWVKQRPEQGLEWIGWIDPENGDTEYAPKFQGKATMTADTSSNTAYLQLSSLTSEDTAVYYCNAGGRFAYWGQGTLVTVSAAKTTAPSGGGGSGGGGSGGGGGSGGGGSSSLSVSSGEKVTMSCKSSQSLLNSGNQKNYLAWYQQKPGQPPKLLIYWASTDESGVPDRFTGSGSGTDFTLTVSSVQAENLALYYCQNDHSYPYHVFDGGTKLEIKRADAAALE
[1]
  Kd: 349 nM

B2: CCK-BR-scFv77-2 (scFv)
scFv: MAGAELVRSGASVKLSCTASGFNIKDYYIHWVKQRPEQGLEWIGWIDPENGDTEYAPKFQGKATMTADTSSNTAYLQLSSLTSEDTAVYYCNAGGRFAYWGQGTLVTVSAAKTTAPSGGGGSGGGGSGGGGGSGGGGSSSLSVSAGEKVTMSCKSSQSLLNSGNQKNYLAWYQQKPGQPPKLLIYGASTRESGVPDRFTGSGSGTDFTLTISSVQAEDLAVYYCQNDHSYPYTFGGGTKLEIKRADAAALEHHHHHH
[1]
  Kd: 195 nM

B3: CCKBR-scFv11-2 (scFv)
scFv: MAQVQLKQSGAELVRPGSSVKISCKASGYAFTNYLIEWVKQRPGQGLEWIGQIYPGDGDTNYNGKFKGKATLTVDNSSSTAYMELRSLTSEDSAVYYCARAATWYYAMDYWGQGTSVTVSSGGGGSGGGGSAIMSASPGEKVTITCSASSSVSYMHWFQQKPGTSPKLWIYSTSNLASGVPARFSGSGSGTSYSLTISSMEAEDAASYFCHQWSSYPWTFGGGTKLEIKRADAAALEHHHHHH
[2]
  binding result: binds

B4: CCK-BR-scFv134-1 (scFv)
scFv: MAGAELVKPGASVKMSCKASGYTFTDYWMHWVKQRPGQGLEWIGAIDTSDSYTSYNQKFKGKATLTVDKSSSTAYIQLSSLTSEDSAVYYCARSEGYLPFDYWGQGTTLTVSSAKTTAPSGGGGSGGGGSGGGGGSGGGGSLSLPVSFGDQVSISCRSSQSLANSYGNTYLSWYLHKPGQSPQLLIYGISNRFSGVPDRFSGSGSGTDFTLKISTIKPEDLGMYYCLQGTHQPRTFGGGTKLEIKRADAAALEHHHHHH
[1]
  Kd: 366 nM
